Experimental data reported in the supplement of paper PMC7877785.
± gives the uncertainty stated by the source.

Assay: self-splicing fitness, log relative to wild type (ln ratio); higher = more splicing; Tetrahymena group I intron in knt gene, E. coli kanamycin selection, DiMSum; sequences stand for … in CUCUCU…GGAGGGAAAAGUUAUCAGGCAUGCACCUGGUAGCUAGUCUUUAAACCAAUAGAUUGCAUCGGUUUAAAAGGCAAGACCGUCAAAUUGCGGGAAAGGGGUCAACAGCCGUUCAGUACCAAGUCUCAGGGGAAACUUUGAGAUGGCCUUGCAAAGGGUAUGGUAAUAAGCUGACGGACAUGGUCCUAACCACGCAGCCAAGUCCUAAGUCAACAGAUCUUCUGUUGAUAUGGAUGCAGUUCACAGACUAAAUGUCGGUCGGGGAAGAUGUAUUCUUCUCAUAAGAUAUAGUCGGACCUCUCCUUAAUGGGAGCUAGCGGAUGAAGUGAUGCAACACUGGAGCCGCUGGGAACUAAUUUGUAUGCGAAAGUAUAUUGAUUAGUUUUGGAGUACUCGUGGUCG
Outline: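 A randomised library covering all eight P1ex-region intron nucleotides was built with the intron in the knt kanamycin-resistance gene on pET-22b(+) and held in E. coli BL21(DE3). Cells were grown overnight at 37°C or 30°C on LB agar, with or without 25 μg/mL kanamycin, plus 100 μg/mL carbenicillin, 50 μM IPTG and 0.2% rhamnose, and pooled colonies were amplicon-sequenced on an Illumina HiSeq 2500. DiMSum fitness is the error-weighted combination of wild-type-normalised replicate fold changes, kanamycin versus none.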

Sequence: UAGAAGCAAUAUUACGGACU
- self-splicing fitness (ln) (30 °C): -1.29 ± 0.13
- self-splicing fitness (ln) (37 °C): 0.474 ± 0.11

Sequence: UAGAAGCAAUAUUACGGAGG
- self-splicing fitness (ln) (30 °C): -3.39 ± 0.3
- self-splicing fitness (ln) (37 °C): -0.889 ± 0.27

Sequence: UAGAAGCAAUAUUACGGCUU
- self-splicing fitness (ln) (30 °C): -3.59 ± 0.48
- self-splicing fitness (ln) (37 °C): -1.67 ± 0.23

Sequence: UAGAAGCAAUAUUACGGGCU
- self-splicing fitness (ln) (30 °C): -3.1 ± 0.23
- self-splicing fitness (ln) (37 °C): -3.1 ± 0.26

Sequence: UAGAAGCAAUAUUACGUACG
- self-splicing fitness (ln) (30 °C): -0.237 ± 0.1
- self-splicing fitness (ln) (37 °C): -0.721 ± 0.13

Sequence: UAGAAGCAAUAUUACGUAGG
- self-splicing fitness (ln) (30 °C): -1.78 ± 0.093
- self-splicing fitness (ln) (37 °C): -1.61 ± 0.16

Sequence: UAGAAGCAAUAUUACGUAGU
- self-splicing fitness (ln) (30 °C): -3.71 ± 0.25
- self-splicing fitness (ln) (37 °C): -2.01 ± 0.22

Sequence: UAGAAGCAAUAUUACGUAUU
- self-splicing fitness (ln) (30 °C): -2.3 ± 0.087
- self-splicing fitness (ln) (37 °C): -2.22 ± 0.12

Sequence: UAGAAGCAAUAUUACGUGUU
- self-splicing fitness (ln) (30 °C): -3.84 ± 0.14
- self-splicing fitness (ln) (37 °C): -2.42 ± 0.11

Sequence: UAGAAGCAAUAUUACGUUAG
- self-splicing fitness (ln) (30 °C): -2.51 ± 0.1
- self-splicing fitness (ln) (37 °C): -0.338 ± 0.093

Sequence: UAGAAGCAAUAUUACGUUAU
- self-splicing fitness (ln) (30 °C): -3.81 ± 0.14
- self-splicing fitness (ln) (37 °C): -2.76 ± 0.12

Sequence: UAGAAGCAAUAUUACGUUCA
- self-splicing fitness (ln) (30 °C): -0.483 ± 0.063
- self-splicing fitness (ln) (37 °C): 0.196 ± 0.082

Sequence: UAGCAGCAAUAUUACGACAU
- self-splicing fitness (ln) (30 °C): -1.604 ± 0.013
- self-splicing fitness (ln) (37 °C): -0.682 ± 0.033

Sequence: UAGCAGCAAUAUUACGACCA
- self-splicing fitness (ln) (30 °C): -0.457 ± 0.12
- self-splicing fitness (ln) (37 °C): 0.838 ± 0.17

Sequence: UAGCAGCAAUAUUACGACUA
- self-splicing fitness (ln) (30 °C): 0.282 ± 0.1
- self-splicing fitness (ln) (37 °C): 0.568 ± 0.13

Sequence: UAGCAGCAAUAUUACGAGAA
- self-splicing fitness (ln) (30 °C): -2.19 ± 0.23
- self-splicing fitness (ln) (37 °C): -0.949 ± 0.18

Sequence: UAGCAGCAAUAUUACGAGGA
- self-splicing fitness (ln) (30 °C): -3.39 ± 0.17
- self-splicing fitness (ln) (37 °C): -2.06 ± 0.13

Sequence: UAGCAGCAAUAUUACGAGGC
- self-splicing fitness (ln) (37 °C): -3.43 ± 0.31

Sequence: UAGCAGCAAUAUUACGCAGC
- self-splicing fitness (ln) (30 °C): -2.6 ± 0.22
- self-splicing fitness (ln) (37 °C): -1.75 ± 0.19

Sequence: UAGCAGCAAUAUUACGCCGU
- self-splicing fitness (ln) (30 °C): -2.13 ± 0.13
- self-splicing fitness (ln) (37 °C): -1.24 ± 0.15

Sequence: UAGCAGCAAUAUUACGCCUU
- self-splicing fitness (ln) (30 °C): -0.751 ± 0.078
- self-splicing fitness (ln) (37 °C): -0.21 ± 0.13

Sequence: UAGCAGCAAUAUUACGCUAC
- self-splicing fitness (ln) (30 °C): -2.76 ± 0.32
- self-splicing fitness (ln) (37 °C): -2.13 ± 0.44

Sequence: UAGCAGCAAUAUUACGCUAG
- self-splicing fitness (ln) (30 °C): -2.94 ± 0.12
- self-splicing fitness (ln) (37 °C): -1.96 ± 0.17

Sequence: UAGCAGCAAUAUUACGCUUU
- self-splicing fitness (ln) (30 °C): -1.18 ± 0.12
- self-splicing fitness (ln) (37 °C): -0.753 ± 0.16

Sequence: UAGCAGCAAUAUUACGGAGG
- self-splicing fitness (ln) (30 °C): -3.29 ± 0.15
- self-splicing fitness (ln) (37 °C): -2.6 ± 0.22

Sequence: UAGCAGCAAUAUUACGGAUC
- self-splicing fitness (ln) (30 °C): -3.34 ± 0.21
- self-splicing fitness (ln) (37 °C): -1.4 ± 0.2

Sequence: UAGCAGCAAUAUUACGGCAA
- self-splicing fitness (ln) (30 °C): -0.772 ± 0.16
- self-splicing fitness (ln) (37 °C): 0.622 ± 0.19

Sequence: UAGCAGCAAUAUUACGGGGG
- self-splicing fitness (ln) (30 °C): -3.44 ± 0.29
- self-splicing fitness (ln) (37 °C): -2.98 ± 0.29

Sequence: UAGCAGCAAUAUUACGGGUG
- self-splicing fitness (ln) (30 °C): -0.481 ± 0.058
- self-splicing fitness (ln) (37 °C): -0.431 ± 0.075

Sequence: UAGCAGCAAUAUUACGGGUU
- self-splicing fitness (ln) (30 °C): -3.82 ± 0.21
- self-splicing fitness (ln) (37 °C): -1.86 ± 0.16

Sequence: UAGCAGCAAUAUUACGGUAG
- self-splicing fitness (ln) (30 °C): -1.07 ± 0.051
- self-splicing fitness (ln) (37 °C): -0.873 ± 0.067

Sequence: UAGCAGCAAUAUUACGGUGC
- self-splicing fitness (ln) (30 °C): -2.2 ± 0.22
- self-splicing fitness (ln) (37 °C): -3.51 ± 0.42

Sequence: UAGCAGCAAUAUUACGGUUC
- self-splicing fitness (ln) (30 °C): -3.12 ± 0.1
- self-splicing fitness (ln) (37 °C): -1.89 ± 0.091

Sequence: UAGCAGCAAUAUUACGUAGG
- self-splicing fitness (ln) (30 °C): -1.62 ± 0.082
- self-splicing fitness (ln) (37 °C): -1.35 ± 0.1

Sequence: UAGCAGCAAUAUUACGUGGC
- self-splicing fitness (ln) (30 °C): -4.18 ± 0.26
- self-splicing fitness (ln) (37 °C): -2.12 ± 0.21

Sequence: UAGCAGCAAUAUUACGUGUC
- self-splicing fitness (ln) (30 °C): -3.39 ± 0.15
- self-splicing fitness (ln) (37 °C): -2.2 ± 0.12

Sequence: UAGCAGCAAUAUUACGUUCC
- self-splicing fitness (ln) (30 °C): -3.78 ± 0.4
- self-splicing fitness (ln) (37 °C): 0.00366 ± 0.21

Sequence: UAGGAGCAAUAUUACGAAAC
- self-splicing fitness (ln) (30 °C): -3.33 ± 0.42
- self-splicing fitness (ln) (37 °C): -2.28 ± 0.5
